Test results as given in patent publication US20260109758A1 (BIOSION, published 2026).
Read-outs that look alike come from different tables or passages of the source. Each block holds one binder with its values, some of them ahead of it.

Tests used:
[1] = molecular target: human IL4Rα on HEK293T-IL4R/STAT6/STAT6-Luc LB2 cells (human, UniProt P24394 26-825); experiment: cell-based or functional assay
[2] = molecular target: T1, human IL4Rα expressed on 293F-IL4Rα cell surface (human, UniProt P24394 26-825); experiment: flow cytometry on 293F-IL4Rα cells, PE anti-human IgG Fc
T1 construct: whole, on cells; also called human IL4Rα-expressing cells; cell surface IL4R
Protocol: Cells were washed twice with FACS buffer, and added with 100 μL/well R-Phycoerythrin AffiniPure Goat Anti-Human IgG, Fey fragment specific (1:1000 dilution in FACS buffer, Jackson Immunoresearch, Cat #109-115-098). Following an incubation of 40 minutes at 4° C. in dark, cells were washed three times and resuspended in FACS buffer. Fluorescence was measured using a Becton Dickinson FACS Canto II-HTS equipment. Data was analyzed using Graphpad Prism and EC₅₀ values were reported.

[3] = molecular target: T1, human IL4Rα expressed on 293F-IL4Rα …; experiment: cell-based blocking FACS on 293F-IL4Rα cells; blocked ligand biotin human IL4
Protocol: (§1) Then, 1×10⁵ cells per well were incubated in 96 well-plates in 100 μL of serially diluted bispecific antibodies, the positive controls or negative control (starting at 100 nM with a 5-fold serial dilution) in FACS buffer for 40 minutes on ice. […] The plates were washed twice with FACS buffer, and then added and incubated for 40 minutes at 4° C. in dark with 100 μL/well R-Phycoerythrin Streptavidin (1:500 dilution in FACS buffer, Jackson Immunoresearch, Cat #016-110-084). Cells were washed twice and resuspended in FACS buffer. Fluorescence was measured using a Becton Dickinson FACS Canto II-HTS equipment. Data was analyzed using Graphpad Prism and IC₅₀ values were reported.

[4] = molecular target: T2, recombinant human TSLP-his (human, UniProt Q969D9 29-159, biotin-labeled in the ELISAs); experiment: competitive ELISA: antibody pre-mixed with biotin human TSLP-his; blocked binding to coated TSLPR-Fc/IL7Ra-Fc
T2 construct: In-house made; not shown: His tag at the C-terminus
Protocol: Briefly, 100 μL human TSLPR-Fc proteins (SEQ ID NO: 34-SEQ ID NO: 38 fusion, prepared in-house) at 1 μg/mL in PBS, and 100 μL human IL7Ra-Fc proteins (SEQ ID NO: 35-SEQ ID NO: 38 fusion, prepared in-house) at 1 μg/mL in PBS were coated on 96-well micro plates overnight at 4° C. The next day, plates were washed with wash buffer (PBS+0.05% Tween-20, PBST), and blocked with 5% w/v non-fatty milk in PBST for 2 hours at 37° C. Plates were then washed again using wash buffer.
After incubation at 37° C. for 40 minutes, plates were washed 4 times using wash buffer. […] Plates were washed again using wash buffer. Finally, TMB was added and the reaction was stopped using 1M H₂SO₄. The absorbance was read on a microplate reader using dual wavelength mode with 450 nm for TMB and 630 nm as the reference wavelength, then the OD (450-630) values were plotted against the antibody concentration. Data was analyzed using Graphpad Prism and IC₅₀ values were reported.

[5] = molecular target: T3, biotin-labeled human TSLP-Fc (human, biotin-labeled); experiment: cell-based blocking FACS: antibody pre-mixed with biotin human TSLP-Fc; blocked binding to cell-surface TSLPR/IL7Ra on HEK293T-TSLPR/IL7R/STAT5-Luc 5C5 cells
T3 construct: also called TSLP-Fc protein; TSLP-Fc-biotin
Protocol: (§2) The cells were prepared following the instruction of lipofectamine 3000 transfection reagent (Thermo Fisher), by transfecting HEK293T cells (ATCC® CRL-11268) with pCMV-T-P plasmids inserted with TSLPR coding sequence between EcoRI and Xba1 sites and pCMV3-SP plasmids inserted with IL7Ra coding sequence between HindIII and Xba1 sites as well as pGL4.52 [luc2P/STAT5RE/Hygro](Promega).
(§3) The cells were harvested from cell culture flasks, washed twice and re-suspended in phosphate buffered saline (PBS) containing 2% v/v Fetal Bovine Serum (FACS buffer). […] Cells were washed twice with FACS buffer, and then added and incubated with 100 μL/well R-Phycoerythrin Streptavidin (1:500 dilution in FACS buffer, Jackson Immunoresearch, Cat #016-110-084) for 40 minutes at 4° C. in dark. Cells were washed twice and re-suspended in FACS buffer. Fluorescence was measured using a Becton Dickinson FACS Canto II-HTS equipment. Data was analyzed using Graphpad Prism and IC₅₀ values were reported.

[6] = molecular target: T1, human IL4Rα expressed on 293F-IL4Rα …; experiment: cell-based blocking FACS on 293F-IL4Rα cells; blocked ligand biotin human IL4; remark: listed apart in the source
Protocol: as §1

[7] = molecular target: T4, recombinant human IL4Rα-his (human, UniProt P24394 26-231, limits assumed, biotin-labeled in the capture ELISA); experiment: competitive ELISA: coated human IL4Rα-his, antibody titrated; blocked ligand biotin human IL4
T4 construct: In-house made; not shown: His tag at the C-terminus
Protocol: Briefly, 100 μL human IL4Rα-his proteins (prepared in-house, IL4Rα of SEQ ID NO: 33 with C-terminal His tag) were coated on 96-well micro plates at 2 μg/mL in PBS overnight at 4° C. The next day, plates were washed with wash buffer (PBS+0.05% w/v Tween-20, PBST), and blocked with 5% w/v non-fatty milk in PBST for 2 hours at 37° C. Plates were then washed again using wash buffer. Serially diluted bispecific antibodies or the controls (starting at 100 nM with a 5-fold serial dilution) in 2.5% w/v non-fatty milk in PBST, 100 μL per well, were added to the IL4Rα bound plates, and incubated at 37° C. for 40 minutes. […] Plates were washed again using wash buffer. Thereafter, the plates were added with 100 μL/well of streptavidin conjugated HRP (1:10000 dilution in PBST buffer, Jackson Immunoresearch, Cat #016-030-084) and incubated for 40 minutes at 37° C. Plates were washed again using wash buffer. Finally, TMB was added and the reaction was stopped using 1M H₂SO₄, and the absorbance was read at 450 nm. Data was analyzed using Graphpad Prism and IC₅₀ values were reported.

[8] = molecular target: T3, biotin-labeled human TSLP-Fc; experiment: cell-based blocking FACS: antibody pre-mixed with biotin human TSLP-Fc; blocked binding to cell-surface TSLPR/IL7Ra on HEK293T-TSLPR/IL7R/STAT5-Luc 5C5 cells; remark: listed apart in the source
Protocol: as §2, §3

Inhibition on IL4 induced STAT6 phosphorylation (IC50, nM) [1]: 0.0318 nM | Inhibition on IL13 induced STAT6 phosphorylation (IC50, nM) [1]: 0.0276 nM | EC50 [2]: 0.169 nM | IC50 [3]: 0.168 nM | IC50 [4]: 0.144 nM | IC50 [5]: 1.31 nM
B1: BSI-502-004 (bispecific antibody, human IgG1, kappa)
heavy: DIQMTQSPSSLSASVGDRVTITCRTSENIYSYLAWYQQKPGKAPKFLVYNAKTLAEGVPSRFSGSGSGTDFTLTISSLQPEDFATYYCQHYYGPPTWTFGQGTKVEIKGGGGSGGGGSGGGGSGGGGSEVQLVESGGGLVQPGGSLRLSCAASGFTFSTYGMSWVRQAPGKGLVWVATINSNGGSTSYPDSVKGRFTISRDNAKNTLYLQMNSLRAEDTAVYYCARFFRFRNAMDYWGQGTLVTVSSGGGGSGGGGSQVQLVQSGAEVKKPGASVKVSCKASGYTFTTYWMHWVRQAPGQGLEWMGVIDPSDSDTTYNQKFKGRVTMTRDTSTSTVYMELSSLRSEDTAVYYCTRSLDGYYDYWGQGTLVTVSSASTKGPSVFPLAPSSKSTSGGTAALGCLVKDYFPEPVTVSWNSGALTSGVHTFPAVLQSSGLYSLSSVVTVPSSSLGTQTYICNVNHKPSNTKVDKKVEPKSCDKTHTCPPCPAPEAQGGPSVFLFPPKPKDTLYITREPEVTCVVVDVSHEDPEVKFNWYVDGVEVHNAKTKPREEQYNSTYRVVSVLTVLHQDWLNGKEYKCQVSNKALPAPIEKTISKAKGQPREPQVYTLPPSRDELTKNQVSLTCLVKGFYPSDIAVEWESNGQPENNYKTTPPVLDSDGSFFLYSKLTVDKSRWQQGNVFSCSVMHEALHNHYTQKSLSLSPG
light: DIQMTQSPSSLSASVGDRVTITCRPTENIYSYLAWYQQKPGKAPKLLIYFARTLAEGVPSRFSGSGSGTDFTLTISSLQPEDFATYYCQHHYGTPWTFGGGTKVEIKRTVAAPSVFIFPPSDEQLKSGTASVVCLLNNFYPREAKVQWKVDNALQSGNSQESVTEQDSKDSTYSLSSTLTLSKADYEKHKVYACEVTHQGLSSPVTKSFNRGEC
notes: hu1C5F12E9-V8 IgG with an anti-IL4R scFv (VL-VH) at the N-terminus of the heavy chain; AQQ and YTE already stand in the entry

IC50 [6]: 0.381 nM | IC50 [7]: 0.449 nM | IC50 [8]: 1.39 nM
B2: BSI-502-005 (bispecific antibody, human IgG1, kappa)
heavy: QVQLVQSGAEVKKPGASVKVSCKASGYTFTTYWMHWVRQAPGQGLEWMGVIDPSDSDTTYNQKFKGRVTMTRDTSTSTVYMELSSLRSEDTAVYYCTRSLDGYYDYWGQGTLVTVSSASTKGPSVFPLAPSSKSTSGGTAALGCLVKDYFPEPVTVSWNSGALTSGVHTFPAVLQSSGLYSLSSVVTVPSSSLGTQTYICNVNHKPSNTKVDKKVEPKSCDKTHTCPPCPAPEAQGGPSVFLFPPKPKDTLYITREPEVTCVVVDVSHEDPEVKFNWYVDGVEVHNAKTKPREEQYNSTYRVVSVLTVLHQDWLNGKEYKCQVSNKALPAPIEKTISKAKGQPREPQVYTLPPSRDELTKNQVSLTCLVKGFYPSDIAVEWESNGQPENNYKTTPPVLDSDGSFFLYSKLTVDKSRWQQGNVFSCSVMHEALHNHYTQKSLSLSPGKGGGGSGGGGSEVQLVESGGGLVQPGGSLRLSCAASGFTFSTYGMSWVRQAPGKGLVWVATINSNGGSTSYPDSVKGRFTISRDNAKNTLYLQMNSLRAEDTAVYYCARFFRFRNAMDYWGQGTLVTVSSGGGGSGGGGSGGGGSGGGGSDIQMTQSPSSLSASVGDRVTITCRTSENIYSYLAWYQQKPGKAPKFLVYNAKTLAEGVPSRFSGSGSGTDFTLTISSLQPEDFATYYCQHYYGPPTWTFGQGTKVEIK
light: B1 light
notes: hu1C5F12E9-V8 IgG with an anti-IL4R scFv (VH-VL) at the C-terminus of the heavy chain; AQQ and YTE already stand in the entry

IC50 [6]: 0.199 nM | IC50 [7]: 0.212 nM | IC50 [8]: 1.12 nM
B3: BSI-502-007 (bispecific antibody, human IgG1, kappa)
heavy: QVQLVQSGAEVKKPGASVKVSCKASGYTFTTYWMHWVRQAPGQGLEWMGVIDPSDSDTTYNQKFKGRVTMTRDTSTSTVYMELSSLRSEDTAVYYCTRSLDGYYDYWGQGTLVTVSSGGGGSGGGGSGGGGSGGGGSDIQMTQSPSSLSASVGDRVTITCRPTENIYSYLAWYQQKPGKAPKLLIYFARTLAEGVPSRFSGSGSGTDFTLTISSLQPEDFATYYCQHHYGTPWTFGGGTKVEIKGGGGSGGGGSEVQLVESGGGLVQPGGSLRLSCAASGFTFSTYGMSWVRQAPGKGLVWVATINSNGGSTSYPDSVKGRFTISRDNAKNTLYLQMNSLRAEDTAVYYCARFFRFRNAMDYWGQGTLVTVSSASTKGPSVFPLAPSSKSTSGGTAALGCLVKDYFPEPVTVSWNSGALTSGVHTFPAVLQSSGLYSLSSVVTVPSSSLGTQTYICNVNHKPSNTKVDKKVEPKSCDKTHTCPPCPAPEAQGGPSVFLFPPKPKDTLYITREPEVTCVVVDVSHEDPEVKFNWYVDGVEVHNAKTKPREEQYNSTYRVVSVLTVLHQDWLNGKEYKCQVSNKALPAPIEKTISKAKGQPREPQVYTLPPSRDELTKNQVSLTCLVKGFYPSDIAVEWESNGQPENNYKTTPPVLDSDGSFFLYSKLTVDKSRWQQGNVFSCSVMHEALHNHYTQKSLSLSPG
light: DIQMTQSPSSLSASVGDRVTITCRTSENIYSYLAWYQQKPGKAPKFLVYNAKTLAEGVPSRFSGSGSGTDFTLTISSLQPEDFATYYCQHYYGPPTWTFGQGTKVEIKRTVAAPSVFIFPPSDEQLKSGTASVVCLLNNFYPREAKVQWKVDNALQSGNSQESVTEQDSKDSTYSLSSTLTLSKADYEKHKVYACEVTHQGLSSPVTKSFNRGEC
notes: huC2C1A1A1-V15 IgG with an anti-TSLP scFv (VH-VL) at the N-terminus of the heavy chain; AQQ and YTE already stand in the entry

IC50 [6]: 0.169 nM | IC50 [7]: 0.236 nM | IC50 [8]: 1.13 nM
B4: BSI-502-008 (bispecific antibody, human IgG1, kappa)
heavy: DIQMTQSPSSLSASVGDRVTITCRPTENIYSYLAWYQQKPGKAPKLLIYFARTLAEGVPSRFSGSGSGTDFTLTISSLQPEDFATYYCQHHYGTPWTFGGGTKVEIKGGGGSGGGGSGGGGSGGGGSQVQLVQSGAEVKKPGASVKVSCKASGYTFTTYWMHWVRQAPGQGLEWMGVIDPSDSDTTYNQKFKGRVTMTRDTSTSTVYMELSSLRSEDTAVYYCTRSLDGYYDYWGQGTLVTVSSGGGGSGGGGSEVQLVESGGGLVQPGGSLRLSCAASGFTFSTYGMSWVRQAPGKGLVWVATINSNGGSTSYPDSVKGRFTISRDNAKNTLYLQMNSLRAEDTAVYYCARFFRFRNAMDYWGQGTLVTVSSASTKGPSVFPLAPSSKSTSGGTAALGCLVKDYFPEPVTVSWNSGALTSGVHTFPAVLQSSGLYSLSSVVTVPSSSLGTQTYICNVNHKPSNTKVDKKVEPKSCDKTHTCPPCPAPEAQGGPSVFLFPPKPKDTLYITREPEVTCVVVDVSHEDPEVKFNWYVDGVEVHNAKTKPREEQYNSTYRVVSVLTVLHQDWLNGKEYKCQVSNKALPAPIEKTISKAKGQPREPQVYTLPPSRDELTKNQVSLTCLVKGFYPSDIAVEWESNGQPENNYKTTPPVLDSDGSFFLYSKLTVDKSRWQQGNVFSCSVMHEALHNHYTQKSLSLSPG
light: B3 light
notes: huC2C1A1A1-V15 IgG with an anti-TSLP scFv (VL-VH) at the N-terminus of the heavy chain; AQQ and YTE already stand in the entry
